Concentration (ng/ml) of heterodimer in hCG heterodimer assay data for one substance are collected here from patent EP1557432B1.

The assay concerns the target TBP-hCGβ(20-190). The experiment in a line: sandwich immunoassay for the hCG heterodimer (anti-hCG β capture, anti-TSH α detection), COS-7 cotransfection of α and β fusions.

TBP-hCGα(20-190) showed a Concentration (ng/ml) of heterodimer in hCG heterodimer assay of 38 ng/mL.
